According to patent publication US20220220215A1:

Assays:
[1] = biological target: CD137 and PD1 individually fused to subunits of NanoLuc luciferase, on the same cell (NanoBiT assay cells); assay: NanoBiT cell based protein interaction assay, luminescence on bridging of CD137 and PD1 on one cell
[2] = biological target: cynomolgus CD137 and cynomolgus PD-1 on activated CD137+ cynomolgus T cells (cynomolgus) (UniProt A9YYE7); assay: flow cytometry, labelled VH on activated CD137+ cynomolgus T cells, n = 3
[3] = biological target: human CD137 and human PD-1 on stimulated primary human T cells (human); assay: flow cytometry, AF488-labelled VH on pre-stimulated human CD8+ cells, average of 2 donors
[4] = biological target: human CD137 and human PD-1 on stimulated primary human T cells (human); assay: flow cytometry, labelled VH on activated CD137+ human T cells (human control), n = 1

| Binder | EC50 [1] | EC50 [2] | EC50 [3] | EC50 [4] |
| --- | --- | --- | --- | --- |
| TPP-1410 PD138G7(G109D)-1GS-CD137A-6GS-HSA2 (bispecific antibody) EVQLVESGGGVVRPGGSLRLSCAASGFTFDDYAMSWVRQAPGKGLEWVSGITWNGGSTGYADSVKDRFTISRDNAKNSLYLQMNSLRAEDTALYYCVRDKYSYAWSYDDFDIWGQGTMVTVSSGGGGSEVQLVESGGGLVQPGGSLRLSCAASGFTLSNYWMNWVRQAPGKGLEWVANINQDGSERYYVDSVKGRFTISRDNAKNSLYLQMNSLRAEDTAVYYCARGGEGYGVDHYGLDVSGQGTTVTVSSGGGGSGGGGSGGGGSGGGGSGGGGSGGGGSEVQLVESGGGLVKPGGSLRLSCAASGFTFSNYNMNWVRQAPGKGLEWVSSISSAGTHIYYADSVKGRFTISRDNAKNSLYLQMNSLRAEDTAVYYCARDPHSTGWYKDFDYWGQGTLVTVSS | 0.0532 nM |  |  |  |
| TPP-1438 CD137A-6GS-HSA2-6GS-PD138G7(G109D)-6GS-PD138G7(G109D) (bispecific antibody) EVQLVESGGGLVQPGGSLRLSCAASGFTLSNYWMNWVRQAPGKGLEWVANINQDGSERYYVDSVKGRFTISRDNAKNSLYLQMNSLRAEDTAVYYCARGGEGYGVDHYGLDVSGQGTTVTVSSGGGGSGGGGSGGGGSGGGGSGGGGSGGGGSEVQLVESGGGLVKPGGSLRLSCAASGFTFSNYNMNWVRQAPGKGLEWVSSISSAGTHIYYADSVKGRFTISRDNAKNSLYLQMNSLRAEDTAVYYCARDPHSTGWYKDFDYWGQGTLVTVSSGGGGSGGGGSGGGGSGGGGSGGGGSGGGGSEVQLVESGGGVVRPGGSLRLSCAASGFTFDDYAMSWVRQAPGKGLEWVSGITWNGGSTGYADSVKDRFTISRDNAKNSLYLQMNSLRAEDTALYYCVRDKYSYAWSYDDFDIWGQGTMVTVSSGGGGSGGGGSGGGGSGGGGSGGGGSGGGGSEVQLVESGGGVVRPGGSLRLSCAASGFTFDDYAMSWVRQAPGKGLEWVSGITWNGGSTGYADSVKDRFTISRDNAKNSLYLQMNSLRAEDTALYYCVRDKYSYAWSYDDFDIWGQGTMVTVSS | 0.105 nM |  |  |  |
| TPP-1439 PD138G7(G109D)-6GS-PD138G7(G109D)-6GS-CD137A-7-6GS-HSA2 (bispecific antibody) EVQLVESGGGVVRPGGSLRLSCAASGFTFDDYAMSWVRQAPGKGLEWVSGITWNGGSTGYADSVKDRFTISRDNAKNSLYLQMNSLRAEDTALYYCVRDKYSYAWSYDDFDIWGQGTMVTVSSGGGGSGGGGSGGGGSGGGGSGGGGSGGGGSEVQLVESGGGVVRPGGSLRLSCAASGFTFDDYAMSWVRQAPGKGLEWVSGITWNGGSTGYADSVKDRFTISRDNAKNSLYLQMNSLRAEDTALYYCVRDKYSYAWSYDDFDIWGQGTMVTVSSGGGGSGGGGSGGGGSGGGGSGGGGSGGGGSEVQLVESGGGLVQPGGSLRLSCAASGFTLSNYWMNWVRQAPGKGLEWVANINQDGSERYYVDSVKGRFTISRDNAKNSLYLQMNSLRAEDTAVYYCARGGEGYGVDHYGLDVSGQGTTVTVSSGGGGSGGGGSGGGGSGGGGSGGGGSGGGGSEVQLVESGGGLVKPGGSLRLSCAASGFTFSNYNMNWVRQAPGKGLEWVSSISSAGTHIYYADSVKGRFTISRDNAKNSLYLQMNSLRAEDTAVYYCARDPHSTGWYKDFDYWGQGTLVTVSS | 0.148 nM |  |  |  |

Binders with a lower EC50 [1], results first:

| EC50 [1] | EC50 [2] | EC50 [3] | EC50 [4] | Binder |
| --- | --- | --- | --- | --- |
| 0.0251 nM | 3.63 nM | 2.22 nM | 3.75 nM | TPP-1246 CD137A-6GS-HSA2-6GS-PD138G7(G109D) (bispecific antibody) EVQLVESGGGLVQPGGSLRLSCAASGFTLSNYWMNWVRQAPGKGLEWVANINQDGSERYYVDSVKGRFTISRDNAKNSLYLQMNSLRAEDTAVYYCARGGEGYGVDHYGLDVSGQGTTVTVSSGGGGSGGGGSGGGGSGGGGSGGGGSGGGGSEVQLVESGGGLVKPGGSLRLSCAASGFTFSNYNMNWVRQAPGKGLEWVSSISSAGTHIYYADSVKGRFTISRDNAKNSLYLQMNSLRAEDTAVYYCARDPHSTGWYKDFDYWGQGTLVTVSSGGGGSGGGGSGGGGSGGGGSGGGGSGGGGSEVQLVESGGGVVRPGGSLRLSCAASGFTFDDYAMSWVRQAPGKGLEWVSGITWNGGSTGYADSVKDRFTISRDNAKNSLYLQMNSLRAEDTALYYCVRDKYSYAWSYDDFDIWGQGTMVTVSS |
| 0.0259 nM |  |  |  | TPP-1409 CD137A-1GS-HSA2-1GS-PD138G7(G109D) (bispecific antibody) EVQLVESGGGLVQPGGSLRLSCAASGFTLSNYWMNWVRQAPGKGLEWVANINQDGSERYYVDSVKGRFTISRDNAKNSLYLQMNSLRAEDTAVYYCARGGEGYGVDHYGLDVSGQGTTVTVSSGGGGSEVQLVESGGGLVKPGGSLRLSCAASGFTFSNYNMNWVRQAPGKGLEWVSSISSAGTHIYYADSVKGRFTISRDNAKNSLYLQMNSLRAEDTAVYYCARDPHSTGWYKDFDYWGQGTLVTVSSGGGGSEVQLVESGGGVVRPGGSLRLSCAASGFTFDDYAMSWVRQAPGKGLEWVSGITWNGGSTGYADSVKDRFTISRDNAKNSLYLQMNSLRAEDTALYYCVRDKYSYAWSYDDFDIWGQGTMVTVSS |
| 0.0515 nM | 7.17 nM | 1.49 nM | 6.87 nM | TPP-1290 PD138G7(G109D)-6GS-CD137A-6GS-HSA2 (bispecific antibody) EVQLVESGGGVVRPGGSLRLSCAASGFTFDDYAMSWVRQAPGKGLEWVSGITWNGGSTGYADSVKDRFTISRDNAKNSLYLQMNSLRAEDTALYYCVRDKYSYAWSYDDFDIWGQGTMVTVSSGGGGSGGGGSGGGGSGGGGSGGGGSGGGGSEVQLVESGGGLVQPGGSLRLSCAASGFTLSNYWMNWVRQAPGKGLEWVANINQDGSERYYVDSVKGRFTISRDNAKNSLYLQMNSLRAEDTAVYYCARGGEGYGVDHYGLDVSGQGTTVTVSSGGGGSGGGGSGGGGSGGGGSGGGGSGGGGSEVQLVESGGGLVKPGGSLRLSCAASGFTFSNYNMNWVRQAPGKGLEWVSSISSAGTHIYYADSVKGRFTISRDNAKNSLYLQMNSLRAEDTAVYYCARDPHSTGWYKDFDYWGQGTLVTVSS |
